According to patent publication US20180064827:

Tests used:
Test in all cases: cell_activity
ZFN 60289 (synthetic) = details: pair with 60287, K562
ZFN 60137 (synthetic) = details: pair with 60334, K562
ZFN 60043 (synthetic) = details: pair with 60045, K562
ZFN 64992 (synthetic) = details: pair with 65021, Hepa1-6
ZFN 64989 (synthetic) = details: pair with 65021, Hepa1-6
ZFN 60392 (synthetic) = details: pair with 65022, Hepa1-6
ZFN 64951 (synthetic) = details: pair with 64946, Hepa1-6
ZFN 64952 (synthetic) = details: pair with 64944, Hepa1-6
ZFN 60413 (synthetic) = details: pair with 64944, Hepa1-6
ZFN 64859 (synthetic) = details: pair with 64869, Hepa1-6
ZFN 60416 (synthetic) = details: pair with 64866, Hepa1-6
ZFN 64848 (synthetic) = details: pair with 64866, Hepa1-6
ZFN 60133 (synthetic) = details: pair with 60134, K562
ZFN 60254 (synthetic) = details: pair with 60259, K562; N7a version 60256 gave 74.32
ZFN 65086 (synthetic) = details: pair with 65094, Hepa1-6
ZFN 65085 (synthetic) = details: pair with 65098, Hepa1-6
ZFN 58780 (synthetic) = details: pair with 65094, Hepa1-6
ZFN 64869 (synthetic) = details: pair with 64859, Hepa1-6
ZFN 60417 (synthetic) = details: pair with 64859, Hepa1-6
ZFN 64866 (synthetic) = details: pair with 64859, Hepa1-6
ZFN 60750 (synthetic) = details: pair with 67495, HepG2, 40 ug/mL
ZFN 25277 (synthetic) = details: pair with 25264, K562, 200 ng
ZFN 60501 (synthetic) = details: pair with 67458, HepG2, 40 ug/mL
ZFN 64066 (synthetic) = details: pair with 60502, HepG2, 40 ug/mL
ZFN 67451 (synthetic) = details: pair with 60502, HepG2, 40 ug/mL
ZFN 60259 (synthetic) = details: pair with 60254, K562
ZFN 64946 (synthetic) = details: pair with 64951, Hepa1-6
ZFN 64944 (synthetic) = details: pair with 64952, Hepa1-6
ZFN 60412 (synthetic) = details: pair with 64951, Hepa1-6
ZFN 64947 (synthetic) = details: pair with 64952, Hepa1-6
ZFN 64842 (synthetic) = details: pair with 64793, Hepa1-6
ZFN 60423 (synthetic) = details: pair with 64793, Hepa1-6
ZFN 64844 (synthetic) = details: pair with 64793, Hepa1-6
ZFN 60461 (synthetic) = details: pair with 64971, Hepa1-6
ZFN 64983 (synthetic) = details: pair with 64971, Hepa1-6
ZFN 64982 (synthetic) = details: pair with 64971, Hepa1-6; finger linker variant 64972 gave 89.0
ZFN 69929 (synthetic) = details: pair with 69920, 0.1 ug mRNA, MK2
ZFN 69925 (synthetic) = details: pair with 69916, 0.1 ug mRNA, MK2
ZFN 69922 (synthetic) = details: pair with 69916, 0.1 ug mRNA, MK2
ZFN 69926 (synthetic) = details: pair with 69915, 0.1 ug mRNA, MK2
ZFN 69928 (synthetic) = details: pair with 69916, 0.1 ug mRNA, MK2
ZFN 60334 (synthetic) = details: pair with 60137, K562
ZFN 25264 (synthetic) = details: pair with 25277, K562, 200 ng
ZFN 69909 (synthetic) = details: pair with 69912, 0.1 ug mRNA, MK2
ZFN 69908 (synthetic) = details: pair with 69912, 0.1 ug mRNA, MK2
ZFN 69903 (synthetic) = details: pair with 69912, 0.1 ug mRNA, MK2
ZFN 69916 (synthetic) = details: pair with 69922, 0.1 ug mRNA, MK2
ZFN 69919 (synthetic) = details: pair with 69922, 0.1 ug mRNA, MK2
ZFN 69920 (synthetic) = details: pair with 69922, 0.1 ug mRNA, MK2
ZFN 69915 (synthetic) = details: pair with 69922, 0.1 ug mRNA, MK2
ZFN 69918 (synthetic) = details: pair with 69922, 0.1 ug mRNA, MK2
ZFN 60460 (synthetic) = details: pair with 64982, Hepa1-6
ZFN 64969 (synthetic) = details: pair with 64982, Hepa1-6
ZFN 64971 (synthetic) = details: pair with 64982, Hepa1-6
ZFN 69913 (synthetic) = details: pair with 69909, 0.1 ug mRNA, MK2
ZFN 69912 (synthetic) = details: pair with 69909, 0.1 ug mRNA, MK2
ZFN 65098 (synthetic) = details: pair with 65086, Hepa1-6
ZFN 58781 (synthetic) = details: pair with 65086, Hepa1-6
ZFN 65094 (synthetic) = details: pair with 65086, Hepa1-6
ZFN 65095 (synthetic) = details: pair with 65086, Hepa1-6
ZFN 60045 (synthetic) = details: pair with 60043, K562
ZFN 60309 (synthetic) = details: pair with 60308, K562
ZFN 65022 (synthetic) = details: pair with 64989, Hepa1-6
ZFN 60393 (synthetic) = details: pair with 64989, Hepa1-6
ZFN 65021 (synthetic) = details: pair with 64989, Hepa1-6
ZFN 64802 (synthetic) = details: pair with 64842, Hepa1-6
ZFN 64791 (synthetic) = details: pair with 64842, Hepa1-6
ZFN 60422 (synthetic) = details: pair with 64842, Hepa1-6
ZFN 64793 (synthetic) = details: pair with 64842, Hepa1-6
ZFN 64347 (synthetic) = details: pair with 60751, HepG2, 40 ug/mL
ZFN 60308 (synthetic) = details: pair with 60309, K562
ZFN 67493 (synthetic) = details: pair with 60750, HepG2, 40 ug/mL
ZFN 60751 (synthetic) = details: pair with 64347, HepG2, 40 ug/mL
ZFN 67495 (synthetic) = details: pair with 60750, HepG2, 40 ug/mL
ZFN 60134 (synthetic) = details: pair with 60133, K562

AGAGAAGTGGATCAGTCTCTGCCTCAAC (double strand) [human PCSK9 60289 site]
activity (ZFN 60289 (synthetic)): 73.1 % indel

AGATGGGGGTCTTACCGGGGGGCTGGTA (double strand) [human PCSK9 60137 site]
activity (ZFN 60137 (synthetic)): 67.9 % indel

AGGATCCGTGGAGGTTGCCTGGCACCTA (double strand) [human PCSK9 60043 site]
activity (ZFN 60043 (synthetic)): 65.4 % indel

AGGATGGAGATTATGAAGAGCTGATGCT (double strand) [mouse PCSK9 site G left]
activity (ZFN 64992 (synthetic)): 79.8 % indel | activity (ZFN 64989 (synthetic)): 83.3 % indel | activity (ZFN 60392 (synthetic)): 69.2 % indel

CACATGGGGCAACTTCAGGGCCTACAGA (double strand) [mouse PCSK9 site E right]
activity (ZFN 64951 (synthetic)): 51.3 % indel | activity (ZFN 64952 (synthetic)): 49.1 % indel | activity (ZFN 60413 (synthetic)): 41.4 % indel

CAGAGCATCCCATGGAACCTGGAGCGAA (double strand) [mouse PCSK9 site B left]
activity (ZFN 64859 (synthetic)): 82.4 % indel | activity (ZFN 60416 (synthetic)): 35.7 % indel | activity (ZFN 64848 (synthetic)): 73.6 % indel

CCGCCCGGTACCGTGGAGGGGTAATCCG (double strand) [human PCSK9 60133 site]
activity (ZFN 60133 (synthetic)): 72.6 % indel

CGCTGCCGGCAACTTCCGGGACGATGCC (double strand) [human PCSK9 60254 site]
activity (ZFN 60254 (synthetic)): 75.7 % indel

CTGGAGGCTGCCAGGAACCTACATTGTG (double strand) [mouse PCSK9 site J left]
activity (ZFN 65086 (synthetic)): 77.8 % indel | activity (ZFN 65085 (synthetic)): 73.5 % indel | activity (ZFN 58780 (synthetic)): 69.6 % indel

CTGGTGCCATGCTGGGATAATTCGCTCC (double strand) [mouse PCSK9 site B right]
activity (ZFN 64869 (synthetic)): 82.4 % indel | activity (ZFN 60417 (synthetic)): 53 % indel | activity (ZFN 64866 (synthetic)): 79 % indel

CTTACTGGAAGGCACTTGGCATCTCCCC (double strand) [human TTR 60750 site]
activity (ZFN 60750 (synthetic)): 61.8 % indel

GAAAGGGACTGAAGCTGCTGGGGCCATG (double strand) [SERPINA1 25277 site]
activity (ZFN 25277 (synthetic)): 40.9 % indel

GAGCAGACGATGAGAAGCCATCCTGCCA (double strand) [human TTR 60501 site]
activity (ZFN 60501 (synthetic)): 47.6 % indel | activity (ZFN 64066 (synthetic)): 37.3 % indel | activity (ZFN 67451 (synthetic)): 36.6 % indel

GAGGCTGGGGAGTAGAGGCAGGCATCGT (double strand) [human PCSK9 60259 site]
activity (ZFN 60259 (synthetic)): 75.7 % indel

GCTAAGTGCATGGCTGTCTGGTTCTGTA (double strand) [mouse PCSK9 site E left]
activity (ZFN 64946 (synthetic)): 51.3 % indel | activity (ZFN 64944 (synthetic)): 49.1 % indel | activity (ZFN 60412 (synthetic)): 28.6 % indel | activity (ZFN 64947 (synthetic)): 42 % indel

GGCACGCTGTTGAAGTCGGTGATGGTGA (double strand) [mouse PCSK9 site A right]
activity (ZFN 64842 (synthetic)): 44.9 % indel | activity (ZFN 60423 (synthetic)): 35.8 % indel | activity (ZFN 64844 (synthetic)): 42.9 % indel

GGGGTGGTGACTCACCGGCCACGTGGGC (double strand) [mouse PCSK9 site F right]
activity (ZFN 60461 (synthetic)): 85.8 % indel | activity (ZFN 64983 (synthetic)): 95.2 % indel | activity (ZFN 64982 (synthetic)): 95.9 % indel

GGGGTGGTGACTTACCAGCCACGTGGGC (double strand) [M. mulatta PCSK9 exon 7 right]
activity (ZFN 69929 (synthetic)): 43.3 % indel | activity (ZFN 69925 (synthetic)): 77 % indel | activity (ZFN 69922 (synthetic)): 81.4 % indel | activity (ZFN 69926 (synthetic)): 37 % indel | activity (ZFN 69928 (synthetic)): 69.2 % indel

GGTACCGGGCGGATGAATACCAGCCCCC (double strand) [human PCSK9 60334 site]
activity (ZFN 60334 (synthetic)): 67.9 % indel

GTCGATGGTCAGCACAGCCTTATGCACG (double strand) [SERPINA1 25264 site]
activity (ZFN 25264 (synthetic)): 40.9 % indel

GTGGAGGCTGCCCGGCACCTACGTGGTG (double strand) [M. mulatta PCSK9 exon 2 left]
activity (ZFN 69909 (synthetic)): 58.7 % indel | activity (ZFN 69908 (synthetic)): 42.5 % indel | activity (ZFN 69903 (synthetic)): 33.7 % indel

GTGGGACATCGCAGGCTGCTGCCCACGT (double strand) [M. mulatta PCSK9 exon 7 left]
activity (ZFN 69916 (synthetic)): 81.4 % indel | activity (ZFN 69919 (synthetic)): 76.1 % indel | activity (ZFN 69920 (synthetic)): 72.1 % indel | activity (ZFN 69915 (synthetic)): 78 % indel | activity (ZFN 69918 (synthetic)): 71.2 % indel

GTGGGACCTCACAGGCTGCTGCCCACGT (double strand) [mouse PCSK9 site F left]
activity (ZFN 60460 (synthetic)): 53.8 % indel | activity (ZFN 64969 (synthetic)): 86.1 % indel | activity (ZFN 64971 (synthetic)): 95.9 % indel

GTGGTGCTGAAGGAGGAGACCCACCGCT (double strand) [M. mulatta PCSK9 exon 2 right]
activity (ZFN 69913 (synthetic)): 53.4 % indel | activity (ZFN 69912 (synthetic)): 58.7 % indel

GTGGTGCTGATGGAGGAGACCCAGAGGC (double strand) [mouse PCSK9 site J right]
activity (ZFN 65098 (synthetic)): 77.2 % indel | activity (ZFN 58781 (synthetic)): 62.3 % indel | activity (ZFN 65094 (synthetic)): 77.8 % indel | activity (ZFN 65095 (synthetic)): 76.7 % indel

TACGTGGTGGTGCTGAAGGAGGAGACCC (double strand) [human PCSK9 60045 site]
activity (ZFN 60045 (synthetic)): 65.4 % indel

TATCCCCGGCGGGCAGCCTGGGCCTGCA (double strand) [human PCSK9 60309 site]
activity (ZFN 60309 (synthetic)): 71.8 % indel

TCCTCCTGGGACGGGAGGGCGAGCATCA (double strand) [mouse PCSK9 site G right]
activity (ZFN 65022 (synthetic)): 76.3 % indel | activity (ZFN 60393 (synthetic)): 60.9 % indel | activity (ZFN 65021 (synthetic)): 83.3 % indel

TCGGGAGATTGAGGGCAGGGTCACCATC (double strand) [mouse PCSK9 site A left]
activity (ZFN 64802 (synthetic)): 43 % indel | activity (ZFN 64791 (synthetic)): 41.8 % indel | activity (ZFN 60422 (synthetic)): 35 % indel | activity (ZFN 64793 (synthetic)): 44.9 % indel

TCTTACTGGAAGGCACTTGGCATCTCCC (double strand) [human TTR 64347 site]
activity (ZFN 64347 (synthetic)): 63.5 % indel

TGCAGGCGGCGGGCAGTGCGCTCTGACT (double strand) [human PCSK9 60308 site]
activity (ZFN 60308 (synthetic)): 71.8 % indel

TGCATGCTCATGGAATGGGGAGATGCCA (double strand) [human TTR exon 3 right]
activity (ZFN 67493 (synthetic)): 59.2 % indel | activity (ZFN 60751 (synthetic)): 63.5 % indel | activity (ZFN 67495 (synthetic)): 61.8 % indel

TTACCGGGGGGCTGGTATTCATCCGCCC (double strand) [human PCSK9 60134 site]
activity (ZFN 60134 (synthetic)): 72.6 % indel
